Source: CN114989300A (BIO THERA SOLUTIONS LTD, dated 2022)

Biological target: T1, 人TIGIT (TIGIT-Jurkat细胞表面) (human, UniProt Q495A1 22-244)
T1 construct: whole, on cells
T1 sequence (looked up): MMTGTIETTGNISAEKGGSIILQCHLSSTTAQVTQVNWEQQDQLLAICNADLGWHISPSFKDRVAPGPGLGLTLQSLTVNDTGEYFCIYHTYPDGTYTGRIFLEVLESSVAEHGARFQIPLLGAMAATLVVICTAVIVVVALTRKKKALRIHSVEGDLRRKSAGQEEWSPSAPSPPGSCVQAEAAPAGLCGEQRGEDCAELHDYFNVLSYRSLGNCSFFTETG
Experiment: flow cytometry; blocking of 12.5 nM biotinylated PVR-Fc binding to TIGIT-Jurkat cells

Row | Binder | IC50
1 | 抗体h10D8OF (antibody, human IgG1, kappa, V domains shown, also called 抗TIGIT抗体) VH: QVQLVESGGGVVQPGRSLRLDCKASGFTFSSYGMSWVRQAPGKGLELVATINSNGGSTYYPDSVKGRFTISRDNSKNTLFLQMNSLRAEDTAVYYCARLGTGTLGFAYWGQGTLVTVSS VL: EIVMTQSPATLSLSPGERATLSCKASQDVKTAVSWYQQKPGQAPRLLIYWASTRATGIPARFSGSGSGTDYTLTISSLEPEDFAVYYCQQHYSTPWTFGQGTKVEIKR | 0.441 nM
2 | 参照抗体Tiragolumab (antibody, V domains shown) VH: EVQLQQSGPGLVKPSQTLSLTCAISGDSVSSNSAAWNWIRQSPSRGLEWLGKTYYRFKWYSDYAVSVKGRITINPDTSKNQFSLQLNSVTPEDTAVFYCTRESTTYDLLAGPFDYWGQGTLVTVSS VL: not shown | 2.82 nM
3 | 抗体h10D8OFKF (antibody, human IgG1, kappa, V domains shown, fucosylation level about 0 (expressed in alpha-(1,6)-fucosyltransferase knockout CHO cells), also called 抗TIGIT抗体) VH: QVQLVESGGGVVQPGRSLRLDCKASGFTFSSYGMSWVRQAPGKGLELVATINSNGGSTYYPDSVKGRFTISRDNSKNTLFLQMNSLRAEDTAVYYCARLGTGTLGFAYWGQGTLVTVSS VL: EIVMTQSPATLSLSPGERATLSCKASQDVKTAVSWYQQKPGQAPRLLIYWASTRATGIPARFSGSGSGTDYTLTISSLEPEDFAVYYCQQHYSTPWTFGQGTKVEIKR | 0.742 nM
